Measured values reported in article doi:10.1101/2023.03.09.531850.

Target: EcbAgaN (Escherichia coli long-B pAgo-associated nuclease) (Escherichia coli)
Assay: SEC-MALS

stoichiometry N: 2
Substance: EcbAgaN (Escherichia coli long-B pAgo-associated nuclease) (enzyme)
